This series in a line: protease stability score; higher = more stable; yeast display proteolysis, trypsin and chymotrypsin.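 Note: relative to predicted unfolded state with 0 unfolded-like and 1 meaning tenfold more protease.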
In turn, “DEEHEHLKELARLILKWWYTGDEQHMLELADPNVRSHVNGVHLVGREEMMKVWVEVLEFLGADHVEDKRSSIQGDKTILHTSHHVNGKEIEVDVDIRIVDGKDHTLEFRIK” registered a protease stability score of 1.44.
For the sequence “SEDEEVLEWAIKIVILALKTGDEDLFRKLADPTMRTEINGVILHGWKEVLRSLKELRVHHVRIERVEVINGRVHVDSREDVEFNGVRYETITHLVIEKVDGRWLMHSLKVE”, the protease stability score turned out to be 2.06.
For “SEEDEELKEWLEEFVHALKTGDENLLQRLADPNTRLIFDGRKFHGREEYRKNYEHLRHRIDHIHDEKSTTVHLINGKVTVESRLDGEINGKRIIFKTIIFYWKFDGRWFLRSEEIR” the value was 0.935; for “REEEEEMEELVRRIIHLLKTGDEREFNRLLDPDARVDDGDWHDHGREAWNKWSEKLRRDAGHENIEFHVRHFEVINGRIIMETKVHIGDKTLDTRLIFVVINGRLTSVRLEIH”, 0.037; for “DELTRDFEEATELLIRILLTGDEDIFREMADPNVRLHYGDKTFIGREEFVKWLHQWRIEDIKIDHVDLQGDYAIVHGRIRTVIGDKEHKVDTKWIIRKYNGKWDIREVHIR”, 2.07.
Consider “STEEEEAKKFSDIVLKAFDTGDEDLYRDLADPDTRSIINGVEKHGWKDIARHIKRIDHSDTHWDRVEMRVVNGQARVHVKGHIDVTIDGQRFVLRVTWHIIVTKIDGRWHLEELSLEVS”, for which the protease stability score amounted to 1.31.
Take “SEKEEHLHELTRLLVEWFITGDEEDNLEQADPHVRMILIVDGRIIERHGREKLYEEAHRHLKRLGIDHYRIKHVDIQGEKVKINGQLEFNGVIYDARLTFVVINGKLHQEYRSEE”: the protease stability score was found to be 1.64.
Sequence “EEEDRIFKEARRLLEYVSETGDETTLKKLVDPHARTHIGDKLLHGREWLHDLLRKAGEDRFHFIIHHVDLQGDKIQMFGQLVIGDKLIHVEIIVNKIDGRWFVESIKID” yielded a protease stability score of 0.889.
Turning to “SEDERQAEEASEQFLRSVETGDFDELSRLFDPDMKVVFNGKELHGRETYIRLERERRRDLGIKHVKVRVKDFRIINGRLHLHTELEFNVGDKSFTHESRYTWEKVNGRWVIRSVDID”, the protease stability score is 2.15.
The value for “DEEEEHMKHHLDLWIKLVQTGNEEHIARMIDPNARFDINGKEEHGRESFRKHLHEILKFFGVDRFHHEIKELRVIDGRVHSVTLWEINGQRLDTRIHAHKVNGVWLVHSLEIK” was 1.14; that for “SEEDRDMEHVINVLRHLMVTGDEEELTKMADPTAYSDVNGVELHGREAFSRIVKLMGVKHVEIRDFTVQGDKVDVDGETRFENHHRFSIIHLRKINGRWYIERMRLE” was 0.771; that for “DREEEKLLHAIKLLLHNWMTGDEDSEIDLMDPNARIVWNGVELHGMTEVRRFLHEYHRRFDVFTHTHIDHYRVIGDKAESHIRLEGSVDGRTIKHQTFILMSKYNGKWTNQTLTFE” was 1.13.
For the sequence “DERKHFFDIALEILKKTIKTGDEREHNENVDPRVKNDINGVELHGMETVSEFHLRLWEEMRVEEIHIRDLDIQGNKAVFHTSLRRRYNGRELEIELHYIVVKVNGRWFIQEIIIR”, the protease stability score worked out at 1.57.
“SEEEEEMRRMVDDIFRMLLTGDWRDFLHLADPTVRLHIGDKQAHGRTQVFELLKLYLHEWREKTIVHESIHHINGVSIIHGSLRVRINGQEHEFKVTWNIFIYDGRLKSMEIRFH” came in with a protease stability score of 0.337.
As for “DEDTELVYRIIKRLKEYIKTGDEDSIKELLDPNARIEVGDKEIHGRDRFAHMLVEIWSKDHKVELKDSRTFPNHLEYDGVLREDIEIDGKRIHRTRKLIVLVRKVNGRWYVEEIIFH”, the protease stability score was 2.19.
Regarding “TEDEEISEKAFRYLVESLETGDEETDRHLADPHVRIVFEGRSYHGREQFHEIMSHIRVHHVEIRDVRVQGNKVDWDTQSKVEFNGRKYWVQTRIIVLKVDGRWILHSYILK”, the protease stability score turned out to be 0.708.
For the sequence “DEVEKFSRDMLHFVRHLWETGDPHLFSRLADPHAQVHIGDKRLHGREEFEKHIEEMIERFPGIRLNLRHFEVQGDKMLVNFEIRVGEKNFTIHLEARKINGRWYIESVEVR”, the protease stability score stood at 0.894.
Turning to “DEHRKLIEELAEKLIEALWTGDERRIRELADPNVRMDYGEFKIHGRDLMVETLKHEMKKFKNVRLINHHVTVQGEFINIDMEVRFDGVSHRVEHNWDVVNGVVKEVRIEKN”, the protease stability score came out at 1.09.
“HEEHDEMQEALRRFIDILHTGDEKERKELADPHVRIDVDGVDHHGREWLTKWTVRLAREMRIHPEIKHSEVFNGQIELHTSEKVDFNGVHEIIESFLLVIKINGRWFLTHVQVH” had a protease stability score of 0.92.
The sequence “SEHEEHIHKLMREWIEALLTGDEEHIEHLVDPHDRLNIDGRHYHGRENATKALHQKREQIRIEHIRVDDVKFYGDKVHVEMTVHGNINGKRIEIDTRFIIVVIDGVLRSFEFRHK” returned a protease stability score of 0.122.
For “SEDEEDFERAMKLLMHDIRTGNEESLNRLFDPNVKININGKELWGREKWIEFLERVDHLDVHDMKIRHLDIQGEKVRAEVHIDRRIKIGDKETRVKVDIRMIAVKVNGRWLLREISVE” the value was 2.1.
Consider “HEEDHHMEIAIELNQRMLQTGDEELLEKLADPSVRLKQGDKDVHGRHVVSRWLHEVIMKFPNVTIIERHVRIIDGKVHFHGDWHFNGVDQHVTIIAEKVNGRWILKTIELK”, for which the protease stability score came out at 0.983.
“HEWERLHHEAMEHFLRLQETGNEKTLQELADPDARLHYNGKDYHGRESMLKFWIELGVDHIHLHDFRIQGDKMEIHMDDHQGDKRLHTIIIHRKVNGQWHLQSEKIH” displayed a protease stability score of 0.548.
The value for “DEVEERMKRIVKHFVSAVLTGNFRHMEQLFDPNYKHRIEIGDKIVNLHGWEAVVKWIEEEWRRFDHVEIRIRDMDVIGNKSEVHGDLHLKAENHTLEIHVIEHFFIVNGKLHHIEKTHH” was -0.007.
“DEEKKQVKDMMELYFRLFVTGNEEILTHLADPDTRIEIDGVSRVGMEEFKRMLEEYLKRLGADHIELRHWDIKFFNGRAINRLHIHIHYGDKSEDVRVTLILEKIDGRWRNRSEHREVG” came in with a protease stability score of 0.771.
Sequence “SEDEEQSRHAFELWVRAYLTGNEEFLEKNADPNTRFIVGDKHIHGRELVFEFLKRIIDRRGMEIKDIKMRDMRVIGEKIEVDTTLHQHYNGVDFDHQIHFIMIKIDGKWKIKTIEIR” came in with a protease stability score of 1.43.
The sequence “TEEKEDKDRWYEEVLRAVLTGDFHFLSRLADPDVRVEYGDKEHVGREEVSRFWQEFFERIKNVTIELHDYKVQGDKIHWLINLRFNGREHIVHIELIIIDGRIHEIRVQIR” gave a protease stability score of 2.02.
“DEKDEHMENLMREFMHSTLTGDEELLERMADPHVKVIVNGKELIGRESWRKWLEELEKRFKHAKFIWLLHRVDVQGEKANSDGVRRINFDGVNINLKTHIFIHVVNGKLKEIEIHDK” gave a protease stability score of 1.33.
In the case of “DEEEEDMKNMLRIWEETVETGDEHTKERFADPNMRLVVNGVSSHGMESFKTVIKWEHERYDHLKKIEIHRLEFFDGRVIIDGTFTGNIDGVEYKRRIILIMVKVDGRWLLEEVIIH”, the protease stability score was determined as 1.39.
For “SEREELVRYAIELMEEVMRTGDERLIESMADPNTRVVVNGVELHGRNHLLRVWSEWRTRDMREREVHVYDGRIEMHGTSDITIGDKHVITDTRHIAEKVDGRWILRSVEFR” the value was 0.405.
The value for “SHEEEMHLHVAELMLKLLLTGNEEELAKLMDPNVQTEIDGRSYHGRELIIDLIRHSREKLGVNHSELKRSHVRLVDGRLHVHLDSRFLVNGVWLDVEIEMFVLKINGKWVIESVHVRVR” was 0.718.
“SEDEEDAERLIRELEHAWHTGDEKYLWEMIDPHARFIIGDKEFHGRDLQLRILHRLIKELGVSRFELHIEHFEVIDGRLHTEGRLNVNGRILKTHLILRKIDGRWLIKSDELR”: the protease stability score came to 1.49.
The value for “DEIDEAIIEFFRLMLEWNETGDEEYIDTLIDPHTQLKIIYGDKDREFIGREEYFKIVLEWRIKEVRIHSIHTQGNKLNIDGEINGNIDGRDTKTRINIHFIVVNGRLKTITLRFE” was 2.43; that for “HEDEELSEWMEREMIDIMRTGDEHRFLRMADPNTRFEFNGKDIHGRERVLDVLEFLGIDHMEFEDSKVRLYDGRVEVRLEGRINVGDKQSESRITIKAEKINGRWVLHEVSIEHH” was 0.821; that for “SEWDRLMKRIAEDITTALQTGDEDRMHELFDPHARMILLIGDFELHYHGMHEISRVLEEHLRRYDHLEWHIRHVDTQGNKVRVESEMRLIIGDKSETRDYRIILIVINGRNKSVEFRVH” was 1.49.
As to “DEEEELYRIALEESIRTLKTGDEDRVHELFDPRARIIVNGREFHGRERATKWAFDWIHKVKNMRFELRDFRIQGDKIIIHGKLHVNGQETEIIIIIHKIDGRWLIEQVEVR”, the protease stability score worked out at 1.4.
“DELIKLAHEFLRIMYDSLRTGDEDRVSELLDPHARLDINGKKRHGRKAILDTYREIWFHDIKIKDVDVIDGVIEIDTRLDLEINGVRFEMKTIIFLTKFNGRWVIEEIRIR”: the protease stability score is 1.21.
The sequence “SDEEERIRRVAEHILHLILTGDEDRWEDMMDPNVRVHIDWNGVKIHLHGREKAAEFFKRFKNIRIEIHSVRIIGEKNDSDERLHVNGQTRDLHNHIIVVNGRIEHMEIRVR” displayed a protease stability score of 2.66.
With “DEEKEDAYRNAELWIKSINTGDEDVLTDLLDPHARIDIGDKKLHGMESFTKLYRDLGFRIKDFHLKDIRIYGEKIEIHGIIHFEQGDKEHNEDTTIILLKVNGKWIIKRLRVN”, the protease stability score was 1.5.
As for “TEEEKIFKKLMHLILNAFLTGDEELLHEYVDPHARVRVGDKEFHGRENIIHALRMLFHHLGIDHIEIDKVDVFNGRMEVHGTFHFDGKNVESILRFDVYNGRLKKEEIEWR”, the protease stability score is 0.726.
The sequence “DERKEYVEILVRILIELFLTGDWEHMLRLADPNMRFRIGDKETHGMEEAYKLMEELKEEIRIHEVRLTHIRVYGDFADTETRVHVEVGDKIVDYDMRLHLVVVNGQLRHITIEIE” had a protease stability score of 0.731.
The value for “DEVDEDEKHALHLLEHSIKTGDERMITEMMDPRYRLIINGQEFHGRELWIELWQRIKNIRINDVKFEELRVVGNKLRVRVHLDVQIGDKRYILDTEIVAVKVNGRWLNEEIIIR” was 1.39; that for “SEEHRKVEEFARHWLHNFQTGDFRRFYELVDPNVRLRQGDWEFHGREIVAEWLFVHLEHARIDDYKVNHVENYNGRSIIDSEIHGEINGRRDITRVEIILIIINGRVHYVEIRIR” was 2.31.
In the case of “SEDEKAVEDLFKLWVRDLVTGDEDSINKLLDPNARVEIGDKEFHGMEDVVRFLLHIRFKHVEMHDMRVQGNKATLHVDIRGVVDGRDRELDTILIIEKVNGKWYLHHQKIN”, the protease stability score turned out to be 1.48.
“TEEDELYRLLREHLKHVIETGDEELTQKNLDPHVKVELQIGDKKFTLHGRDQFTQWWKELHEKVKNIRFEDRHVQFFDGVAVVHVEINVNGRHIELIVIAEKVNGQWRIKHVEIRFL”: the protease stability score was determined as 1.53.
As for “NDDQKELEHIMKLLSRALETGDEEKLRELFDPHTRIHINGVTRIGWEHMKHHFEDLGLSNFHFHLRVRHFDVQGDKARVEGELVVNFNGKETSHDVEWRLEKVNGRWIVKSIIVG”, the protease stability score is 2.27.
The value for “DETTDEMDKSLERFLDVVRTGDEHEDVHLADPHARIEFENRDIHGMKEHASQRIRVMLKFGWEVHIKFRHLRQVDGRLDVRLELRIKFDGVLYHLDTNEYWRKFDGRWVLDSMEFH” was 1.24.

The values are drawn from the NTF2 design screens of Basanta et al. (2020).
